Residue numbers refer to the chain shown, from its start. Read-outs that look alike come from different tables or passages of the source. One block for each molecule: values may come before it.
T1: full-length b5R released from the linker-cleaved cyt b5-b5R fusion (mouse, UniProt Q9DCN2 1-301)
T1 sequence: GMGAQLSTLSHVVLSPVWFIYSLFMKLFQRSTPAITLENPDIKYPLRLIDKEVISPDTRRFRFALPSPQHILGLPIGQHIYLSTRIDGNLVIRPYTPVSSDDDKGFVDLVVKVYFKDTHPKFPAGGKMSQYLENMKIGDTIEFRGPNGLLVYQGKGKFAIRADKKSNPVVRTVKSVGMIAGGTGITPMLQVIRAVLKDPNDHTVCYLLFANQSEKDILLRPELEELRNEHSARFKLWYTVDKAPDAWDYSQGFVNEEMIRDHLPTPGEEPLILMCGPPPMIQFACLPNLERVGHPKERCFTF

T2: SCD1 released from the linker-cleaved SCD1-cyt b5-b5R fusion (mouse, UniProt P13516 1-355)
T2 sequence: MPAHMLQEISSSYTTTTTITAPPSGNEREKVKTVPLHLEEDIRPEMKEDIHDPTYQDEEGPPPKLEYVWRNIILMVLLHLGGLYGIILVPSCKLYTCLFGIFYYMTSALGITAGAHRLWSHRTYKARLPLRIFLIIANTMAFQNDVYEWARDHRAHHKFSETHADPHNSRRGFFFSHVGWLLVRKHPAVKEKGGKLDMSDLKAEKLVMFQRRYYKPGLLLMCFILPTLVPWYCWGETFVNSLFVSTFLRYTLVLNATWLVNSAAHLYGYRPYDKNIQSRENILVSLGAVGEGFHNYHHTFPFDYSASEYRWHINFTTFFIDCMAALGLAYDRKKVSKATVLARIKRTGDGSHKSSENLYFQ

B1: full-length cyt b5 L121 Trp mutant released from the linker-cleaved cyt b5-b5R fusion (natural protein, mouse)
chain: MAGQSDKDVKYYTLEEIQKHKDSKSTWVILHHKVYDLTKFLEEHPGGEEVLREQAGGDATENFEDVGHSTDARELSKTYIIGELHPDDRSKIAKPSDTLITTVESNSSWWTNWVIPAISAWAVALMYRLYMAEDENLYFQ
B2: full-length cyt b5 V123 Trp mutant released from the linker-cleaved cyt b5-b5R fusion (natural protein, mouse)
chain: B1 chain with W121L, V123W
B3: full-length cyt b5 released from the linker-cleaved cyt b5-b5R fusion (natural protein, mouse)
chain: B1 chain with W121L
B4: full-length cyt b5 A124 Trp mutant released from the linker-cleaved cyt b5-b5R fusion (natural protein, mouse)
chain: B1 chain with W121L, A124W
B5: full-length cyt b5 released from the linker-cleaved SCD1-cyt b5-b5R fusion (natural protein, mouse)
chain: GMAGQSDKDVKYYTLEEIQKHKDSKSTWVILHHKVYDLTKFLEEHPGGEEVLREQAGGDATENFEDVGHSTDARELSKTYIIGELHPDDRSKIAKPSDTLITTVESNSSWWTNWVIPAISALAVALMYRLYMAEDENLYFQ
B6: full-length b5R released from the linker-cleaved SCD1-cyt b5-b5R fusion (enzyme, mouse)
chain: T1 sequence

Experiments:
Experiment in all cases: SEC
[1] = biological target: SCD1 released from the linker-cleaved SCD1-cyt b5 fusion (mouse)
[2] = biological target: T1, full-length b5R released from the …
[3] = biological target: T1, full-length b5R released from the …; remark: listed apart in the source
[4] = biological target: B6
[5] = biological target: T2, SCD1 released from the linker-cleaved …

- percent of cyt b5 dissociated from the complex [1]: 50%
Molecule: full-length cyt b5 M126A released from the linker-cleaved SCD1-cyt b5 fusion (from UniProt P56395 1-134) (natural protein)

Molecule: B1
- binding result [2]: binds

Molecule: B2
- binding result [2]: binds

Molecule: B3
- binding result [3]: binds

Molecule: B4
- binding result [2]: binds

Molecule: B5
- binding result [4]: binds
- binding result [5]: binds

Molecule: B6
- binding result [5]: binds

From paper doi:10.1101/2021.11.13.468331 (bioRxiv, 2021)
